Measured values published in patent publication US20240261333A1 (published 2024).

T1: LYZ (UniProt P61626 19-148)
T1 construct: Protein found in the co-IP by mass spectrometry; also called NP_000230.1
T1 sequence (looked up): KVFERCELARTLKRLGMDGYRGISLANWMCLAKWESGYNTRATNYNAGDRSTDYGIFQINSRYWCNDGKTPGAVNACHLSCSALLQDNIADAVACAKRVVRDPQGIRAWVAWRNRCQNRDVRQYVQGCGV

T2: EEF1A1 (UniProt P68104 2-462)
T2 construct: Endogenous protein found in the co-IP by mass spectrometry; also called NP_001393.1
T2 sequence (looked up): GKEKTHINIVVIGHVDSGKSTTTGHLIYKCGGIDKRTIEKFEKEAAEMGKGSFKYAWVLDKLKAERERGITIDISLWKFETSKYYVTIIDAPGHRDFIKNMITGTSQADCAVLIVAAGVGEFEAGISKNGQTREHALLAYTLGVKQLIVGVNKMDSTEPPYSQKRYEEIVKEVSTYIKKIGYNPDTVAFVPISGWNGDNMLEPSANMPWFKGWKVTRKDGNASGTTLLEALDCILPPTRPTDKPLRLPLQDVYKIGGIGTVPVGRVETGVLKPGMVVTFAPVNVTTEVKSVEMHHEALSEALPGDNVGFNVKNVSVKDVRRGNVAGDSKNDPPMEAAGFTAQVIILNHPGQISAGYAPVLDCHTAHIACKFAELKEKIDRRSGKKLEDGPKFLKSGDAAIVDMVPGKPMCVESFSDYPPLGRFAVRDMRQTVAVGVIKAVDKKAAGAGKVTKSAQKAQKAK

B1: N-terminal FLAG tagged B3GNT2 (enzyme, human, UniProt Q9NY97 1-397, looked up)
chain: MSVGRRRIKLLGILMMANVFIYFIMEVSKSSSQEKNGKGEVIIPKEKFWKISTPPEAYWNREQEKLNRQYNPILSMLTNQTGEAGRLSNISHLNYCEPDLRVTSVVTGFNNLPDRFKDFLLYLRCRNYSLLIDQPDKCAKKPFLLLAIKSLTPHFARRQAIRESWGQESNAGNQTVVRVFLLGQTPPEDNHPDLSDMLKFESEKHQDILMWNYRDTFFNLSLKEVLFLRWVSTSCPDTEFVFKGDDDVFVNTHHILNYLNSLSKTKAKDLFIGDVIHNAGPHRDKKLKYYIPEVVYSGLYPPYAGGGGFLYSGHLALRLYHITDQVHLYPIDDVYTGMCLQKLGLVPEKHKGFRTFDIEEKNKNNICSYVDLMLVHSRKPQEMIDIWSQLQSAHLKC
notes: Overexpressed in cells and pulled down from the lysate with mouse anti-FLAG antibody; also called N-FLAG B3GNT2; N-term FLAG; not shown: N-terminal FLAG tag
B2: N-terminal FLAG tagged B3GNT2 (enzyme, human, UniProt Q9NY97 1-397, looked up)
chain: B1 chain
notes: FLAG-tagged ORF overexpressed in cells; bait of the anti-FLAG co-IP; also called N-FLAG B3GNT2; N-term FLAG; not shown: FLAG tag at the N-terminus

Assays:
ARPC4 = ARPC4 (human, UniProt P59998 2-187); assay: co-IP, anti-FLAG, lysate of cells with N-FLAG B3GNT2; mass spectrometry
RPS15A = RPS15A (UniProt P62244 2-130); assay: co-IP with anti-FLAG, mass spectrometry; N-FLAG B3GNT2
Procedure: (§1) Cells were plated in 10-cm cell culture dishes and grown to 60-80% confluency. For each condition, two biological replicates were harvested for co-IP. Cells were washed with PBS and 4 mL of lysis buffer (20 mM HEPES, 1% Triton X-100, 150 mM NaCl, 1 mM EDTA, and 10% glycerol) containing protease inhibitor cocktail was added. Cells were scraped and lysate was incubated at 4° C. under rotary agitation for 1 h. Lysate was centrifuged at 14,000×g for 10 min at 4° C. Supernatant was transferred to a new tube and an aliquot was taken as the input. […] For Western blots, 10 μg/mL Chicken Anti-FLAG (Aves labs ET-DY100) and IgY control (R&D Systems AB-101-C) antibodies were biotinylated (Thermo Fisher Scientific 90407) and added to the respective conditions. Lysates with antibodies were incubated at 4° C. under rotary agitation overnight. For each mL of lysate, 50 μL of Pierce Protein A/G Magnetic Beads (Mass spectrometry; Thermo Fisher Scientific 88803) or Pierce Streptavidin Magnetic Beads (Western blot; Thermo Fisher Scientific 88817) was washed twice with lysis buffer. Lysates with antibodies were added to the beads and incubated at 4° C. under rotary agitation for 4 h. Beads were washed with lysis buffer 3 times and resuspended in lysis buffer for storage.
(§2) Magnetic beads were resuspended in 100 mM Tris pH 7.8, reduced, alkylated and digested with trypsin at 37° ° C. overnight. This solution was subjected to solid phase extraction to concentrate the peptides and remove unwanted reagents followed by injection onto a Shimadzu HPLC with fraction collector. Eight fractions were collected and after concentration were injected on a Waters NanoAcquity HPLC equipped with a self-packed Aeris 3 μm C18 analytical column 0.075 mm by 20 cm, (Phenomenex). Peptides were eluted using standard reverse-phase gradients. The effluent from the column was analyzed using a Thermo Orbitrap Elite mass spectrometer (nanospray configuration) operated in a data dependent manner for 54 minutes. The resulting fragmentation spectra were correlated against the known database using Proteome Discover 1.4 (Thermo Fisher Scientific).

RPS11 = RPS11 (UniProt P62280 2-158); assay: as above
Procedure: as §1, §2

LYZ = target: T1, LYZ; assay: as above
Procedure: as §1, §2

SLIRP = SLIRP (UniProt Q9GZT3 1-109); assay: as above
Procedure: as §1, §2

RPL35A = RPL35A (UniProt P18077 1-110); assay: as above
Procedure: as §1, §2

EEF1A1 = target: T2, EEF1A1; assay: as above
Procedure: as §1, §2

RPL21 = RPL21 (UniProt P46778 2-160); assay: as above
Procedure: as §1, §2

RPL31 = RPL31 (UniProt P62899 1-125); assay: as above
Procedure: as §1, §2

CTSD = target: T3, CTSD (UniProt P07339 65-412, limits assumed); assay: as above
T3 construct: Endogenous protein found in the co-IP by mass spectrometry; also called NP_001900.1
T3 sequence (P07339 65-412 limits assumed): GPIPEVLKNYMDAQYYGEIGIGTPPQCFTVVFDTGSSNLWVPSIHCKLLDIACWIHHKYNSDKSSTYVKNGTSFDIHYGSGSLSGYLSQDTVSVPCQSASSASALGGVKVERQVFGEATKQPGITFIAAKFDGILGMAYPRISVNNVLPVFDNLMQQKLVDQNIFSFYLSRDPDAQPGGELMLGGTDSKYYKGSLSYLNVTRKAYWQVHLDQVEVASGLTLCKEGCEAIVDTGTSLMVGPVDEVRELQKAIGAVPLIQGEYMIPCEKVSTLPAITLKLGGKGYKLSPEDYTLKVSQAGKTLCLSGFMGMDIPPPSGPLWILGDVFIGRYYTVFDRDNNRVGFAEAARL
Procedure: as §1, §2

RPL36 = RPL36 (UniProt Q9Y3U8 2-105); assay: as above
Procedure: as §1, §2

RPS17 = RPS17 (UniProt P08708 2-135); assay: as above
Procedure: as §1, §2

Row | Binder | co-IP mass spectrometry count (ARPC4) | co-IP mass spectrometry count (RPS15A) | co-IP mass spectrometry count (RPS11) | co-IP mass spectrometry count (LYZ) | co-IP mass spectrometry count (SLIRP) | co-IP mass spectrometry count (RPL35A) | co-IP mass spectrometry count (EEF1A1) | co-IP mass spectrometry count (RPL21) | co-IP mass spectrometry count (RPL31) | co-IP mass spectrometry count (CTSD) | co-IP mass spectrometry count (RPL36) | co-IP mass spectrometry count (RPS17)
1 | B1 | 0 | – | – | – | – | – | – | – | – | – | – | –
2 | B2 | – | 3 | 13 | 3 | 0 | 0 | 13 | 8 | 0 | 3 | 0 | 5
